Broadly, the EC50 is the concentration that produces a half-maximal response. Read a low EC50 as greater potency.

From patent publication US20250002610A1 (Genmab, published 2025) come the findings set out here.

This test addresses T1, human FAPα (Fibroblast activation protein alpha), cell surface expressed (human, UniProt Q12884 1-760).
T1 construct: Endogenous on human lung fibroblasts and CAFs
T1 sequence: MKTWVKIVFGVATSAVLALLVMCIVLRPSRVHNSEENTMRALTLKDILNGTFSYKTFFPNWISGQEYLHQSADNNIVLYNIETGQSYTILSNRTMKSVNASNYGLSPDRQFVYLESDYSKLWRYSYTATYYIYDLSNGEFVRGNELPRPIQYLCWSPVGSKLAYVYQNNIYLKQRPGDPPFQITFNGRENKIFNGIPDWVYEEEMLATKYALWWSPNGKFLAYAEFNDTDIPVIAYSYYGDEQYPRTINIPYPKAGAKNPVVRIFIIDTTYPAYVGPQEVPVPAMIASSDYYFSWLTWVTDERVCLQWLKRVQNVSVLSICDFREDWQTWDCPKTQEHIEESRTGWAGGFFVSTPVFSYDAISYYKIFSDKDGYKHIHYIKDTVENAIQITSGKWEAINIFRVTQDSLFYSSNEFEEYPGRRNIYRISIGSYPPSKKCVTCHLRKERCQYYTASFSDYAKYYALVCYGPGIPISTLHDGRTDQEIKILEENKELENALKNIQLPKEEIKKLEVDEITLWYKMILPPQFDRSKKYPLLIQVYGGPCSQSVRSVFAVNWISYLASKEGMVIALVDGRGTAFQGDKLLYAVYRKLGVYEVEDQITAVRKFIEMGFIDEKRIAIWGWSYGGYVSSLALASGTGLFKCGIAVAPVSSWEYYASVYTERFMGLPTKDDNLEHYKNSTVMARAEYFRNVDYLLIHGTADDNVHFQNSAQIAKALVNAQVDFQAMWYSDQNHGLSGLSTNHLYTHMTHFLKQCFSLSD
Briefly: flow cytometry, human lung fibroblasts, average ± SEM. As for the experimental part:
Binding of bispecific or monoclonal antibodies carrying the anti-FAPα arm derived from IgG1-FAPα-FERL (BisG1-FAPα-FERL/DR4-FERR, BisG1-FAPα-FERL/b12-FERR, and IgG1-FAPα-FERL) to cell surface expressed human FAPα was analyzed by flow cytometry using human lung fibroblasts and CAFs, which endogenously express FAPα. BisG1-b12-FERL/b12-FERR was used as negative control.
Human lung fibroblasts and CAFs (50,000 cells/well) were seeded in 96-Well round bottom plates (Greiner Bio-one, Cat #650101). Antibody dilutions were prepared using fluorescence-activated cell sorting (FACS) buffer, consisting of phosphate buffer saline (PBS, Lonza, Cat #BE17-517Q)+1% Bovine Serum Albumin (BSA, Roche, Cat #10735086001)+0.02% Sodium Azide (Bio-World, Cat #41920044-3). Plates were centrifuged, supernatant was removed, cells were resuspended in 50 μL of human Fc Block (BD, Cat #564220, diluted 1:100 in FACS buffer) and 50 μL of viability stain TO-PRO-3 Iodide (Thermo Fisher, Cat #T3605, diluted 1: 25,000 in FACS buffer), and incubated for 15 min at 4° C. Plates were washed three times with FACS buffer. Plates were centrifuged, supernatant was removed, cells were resuspended in 50 μL of antibody dilutions (concentration range 90-0.0005 μg/mL, three-fold dilution steps using FACS buffer) of BisG1-FAPα-FERL/DR4-FERR, BisG1-FAPα-FERL/b12-FERR, BisG1-b12-FERL/b12-FERR (top six concentrations only for CAFs culture) or IgG1-FAPα-FERL (top four concentrations only for CAFs culture) and incubated for 30 min at 4° C. Cells were washed three times with FACS buffer and resuspended in 50 μL of Fluorescein isothiocyanate (FITC)-labeled polyclonal antibody goat anti-mouse IgG1 (Jackson Immuno Research, Cat #109-096-097, diluted 1:100 in FACS buffer). […] Antibody binding to viable cells (TO-PRO-3 negative) was analyzed by flow cytometry on a FACSCelesta™ (BD biosciences) and data were processed using FlowJo_v10.8.1 (FlowJo LLC). Geomean fluorescence intensity, gMFI, was determined and visualized using GraphPad Prism.

B1: BisG1-FAPα-FERL/DR4-FERR (bispecific antibody, human IgG1, kappa, lambda)
heavy 1: EVQLLESGGGLVQPGGSPRLSCEASGFTFSSYALSWVRQAPGKGLEWVSAISGSGGGRYYADSVKGRFTISRDNSKNTLFLQMNSLRAEDTAVYYCAKEGYSSSGTYWDHWGQGTLVTVSSASTKGPSVFPLAPSSKSTSGGTAALGCLVKDYFPEPVTVSWNSGALTSGVHTFPAVLQSSGLYSLSSVVTVPSSSLGTQTYICNVNHKPSNTKVDKRVEPKSCDKTHTCPPCPAPEFERGPSVFLFPPKPKDTLMISRTPEVTCVVVDVSHEDPEVKFNWYVDGVEVHNAKTKPREEQYNSTYRVVSVLTVLHQDWLNGKEYKCKVSNKALPAPIEKTISKAKGQPREPQVYTLPPSREEMTKNQVSLTCLVKGFYPSDIAVEWESNGQPENNYKTTPPVLDSDGSFLLYSKLTVDKSRWQQGNVFSCSVMHEALHNHYTQKSLSLSPG
light 1: AIQMTQSPSSVSASVGDRVTITCRASQGVSSWLAWYQQKPGRAPKLLIYVASTLQSGVPSRFSGSGSGTDFTLTINSLQPEDFATYYCQQANSFPPTFGQGTRLEMKRTVAAPSVFIFPPSDEQLKSGTASVVCLLNNFYPREAKVQWKVDNALQSGNSQESVTEQDSKDSTYSLSSTLTLSKADYEKHKVYACEVTHQGLSSPVTKSFNRGEC
heavy 2: QVQLQESGPGLVKPSGTLSLTCAVSGGSISSYSWWSWIRQPPGKGLEWIGELYHSGSTNYNPSLKSRVTISVDKSKNQFSLKLRSVTAADTAVYYCVRGVATIDYWGQGTLVTVSSASTKGPSVFPLAPSSKSTSGGTAALGCLVKDYFPEPVTVSWNSGALTSGVHTFPAVLQSSGLYSLSSVVTVPSSSLGTQTYICNVNHKPSNTKVDKRVEPKSCDKTHTCPPCPAPEFERGPSVFLFPPKPKDTLMISRTPEVTCVVVDVSHEDPEVKFNWYVDGVEVHNAKTKPREEQYNSTYRVVSVLTVLHQDWLNGKEYKCKVSNKALPAPIEKTISKAKGQPREPQVYTLPPSREEMTKNQVSLTCLVKGFYPSDIAVEWESNGQPENNYKTTPPVLDSDGSFFLYSRLTVDKSRWQQGNVFSCSVMHEALHNHYTQKSLSLSPG
light 2: QSALTQPPSASGSPGQSVTISCTGTSSDVGGYNFVSWYQQDPGKAPKLLIYEVTKRPSGVPDRFSGSKSGNTASLTVSGLQAEDEADYYCSSYAGSNNVMFGGGTKLTVLGQPKAAPSVTLFPPSSEELQANKATLVCLISDFYPGAVTVAWKADSSPVKAGVETTTPSKQSNNKYAASSYLSLTPEQWKSHRSYSCQVTHEGSTVEKTVAPTECS
notes: Human IgG1 bispecific made by controlled Fab-arm exchange of IgG1-FAPα-FERL and IgG1-DR4-FERR; monovalent for FAPα and for DR4; also called GEN1057
The molecule B1 came in with a half-maximal effective concentration (EC50) of 0.051 µg/mL.

B2: IgG1-FAPα-FERL (antibody)
heavy: B1 heavy 1
light: B1 light 1
notes: Bivalent monoclonal IgG1 kappa
As for B2, a half-maximal response (EC50) required 0.015 µg/mL.

B3: BisG1-FAPα-FERL/b12-FERR (bispecific antibody, human IgG1, kappa)
heavy 1: B1 heavy 1
light 1: B1 light 1
heavy 2: QVQLVQSGAEVKKPGASVKVSCQASGYRFSNFVIHWVRQAPGQRFEWMGWINPYNGNKEFSAKFQDRVTFTADTSANTAYMELRSLRSADTAVYYCARVGPYSWDDSPQDNYYMDVWGKGTTVIVSSASTKGPSVFPLAPSSKSTSGGTAALGCLVKDYFPEPVTVSWNSGALTSGVHTFPAVLQSSGLYSLSSVVTVPSSSLGTQTYICNVNHKPSNTKVDKRVEPKSCDKTHTCPPCPAPEFERGPSVFLFPPKPKDTLMISRTPEVTCVVVDVSHEDPEVKFNWYVDGVEVHNAKTKPREEQYNSTYRVVSVLTVLHQDWLNGKEYKCKVSNKALPAPIEKTISKAKGQPREPQVYTLPPSREEMTKNQVSLTCLVKGFYPSDIAVEWESNGQPENNYKTTPPVLDSDGSFFLYSRLTVDKSRWQQGNVFSCSVMHEALHNHYTQKSLSLSPG
light 2: EIVLTQSPGTLSLSPGERATFSCRSSHSIRSRRVAWYQHKPGQAPRLVIHGVSNRASGISDRFSGSGSGTDFTLTITRVEPEDFALYYCQVYGASSYTFGQGTKLERKRTVAAPSVFIFPPSDEQLKSGTASVVCLLNNFYPREAKVQWKVDNALQSGNSQESVTEQDSKDSTYSLSSTLTLSKADYEKHKVYACEVTHQGLSSPVTKSFNRGEC
B3 showed an EC50 of 0.041 µg/mL.
